Test results reported in patent US20060223158.

Legend:
[1] = system: Cdk5 purified from insect Sf9 cultures
[2] = system: p35-His6 purified from insect Sf9 cultures

CK1α (New England Biolabs), sequence (P48729 2-337): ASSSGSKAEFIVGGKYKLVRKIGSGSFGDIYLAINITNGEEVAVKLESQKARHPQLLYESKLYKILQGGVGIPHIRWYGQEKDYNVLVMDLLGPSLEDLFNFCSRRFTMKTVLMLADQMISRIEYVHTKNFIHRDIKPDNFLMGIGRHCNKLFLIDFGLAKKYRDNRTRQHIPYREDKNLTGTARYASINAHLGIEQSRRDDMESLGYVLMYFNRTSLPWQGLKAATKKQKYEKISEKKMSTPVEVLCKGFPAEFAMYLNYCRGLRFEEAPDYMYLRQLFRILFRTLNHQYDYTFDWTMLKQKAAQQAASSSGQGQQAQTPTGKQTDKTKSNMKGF

Substance: CK1α (New England Biolabs)
- 32P incorporation, in vitro phosphorylation, SDS-PAGE and autoradiography [1]: phosphorylated Cdk5 catalytic subunit to a much lesser extent
- 32P incorporation, in vitro phosphorylation, SDS-PAGE and autoradiography [2]: CKI was able to efficiently phosphorylate p25
- stoichiometry of phosphorylation in vitro [2]: phosphorylation of p25 to approximately 2 mol/mol
